For one series the following is noted: phosphorylation at T188.
Regarding “Erk2: R65H+T188A vs R65H (HEK293, no EGF; TEY phosphorylation)”, the other result is recorded as “increases”. For the substance “Erk2: R65H+T188E, R65H+T188D (recombinant; dual TEY autophosphorylation)”, the other entry is listed as “decreases”. On to “Erk2: T188A (HEK293 + EGF; TEY phosphorylation)”, for which the other entry is “increases”. Still for that read-out and setting: for “Erk2: T188A (HEK293, no EGF; TEY phosphorylation)” the value was “increases, 2–6 fold”.

As to “Erk2: T188A (recombinant protein, in vitro kinase assay)”, the enzymatic_activity entry was “abolishes”. As to “Erk2: T188A (recombinant; dual TEY phosphorylation by MEK1EE in vitro)”, the other entry is “decreases, 2.2% doubly phosphorylated (Erk2WT 12.5%)”.

Turning to “Erk2: T188A (recombinant; spontaneous Tyr185 autophosphorylation)”, the other result is recorded as “increases, 84% monophosphorylated on Tyr185”.

Erk2: T188C: the enzymatic_activity result is recorded as “no change”.

Take “Erk2: T188D (recombinant; dual TEY phosphorylation by MEK1EE in vitro)”: the other entry is “decreases, 2.2% dually phosphorylated (Erk2WT 12.5%)”. Consider “Erk2: T188E, T188D (HEK293 + EGF; TEY phosphorylation)”, for which the other entry is “increases”.

In the case of “Erk2: T188E, T188D (recombinant protein, in vitro kinase assay)”, the enzymatic_activity entry is recorded as “abolishes”. Same read-out and setting: for Erk2: T188G the value was “decreases, to about 6%”.

Consider Erk2: T188N, for which the enzymatic_activity entry is listed as “abolishes”.

With Erk2: T188S, the enzymatic_activity result was “increases”.

Staying with this series, now noted: phosphorylation at T207.
As for “Erk1: R84H+T207A vs R84H (HEK293, no EGF; TEY phosphorylation)”, the other entry is recorded as “increases”.

In the case of “Erk1: T207A (HEK293 + EGF; TEY phosphorylation)”, the other entry was “increases”. Consider “Erk1: T207A (HEK293, no EGF; TEY phosphorylation)”, for which the other entry is “increases, 2–6 fold”. In the case of “Erk1: T207A (recombinant protein, in vitro kinase assay)”, the enzymatic_activity entry is on record as “abolishes”. “Erk1: T207E, T207D (HEK293 + EGF; TEY phosphorylation)”: the other result is on record as “increases”. In the case of “Erk1: T207E, T207D (recombinant protein, in vitro kinase assay)”, the enzymatic_activity result is recorded as “abolishes”.

These data come from paper PMC12141571.
